Values joined by “and” are separate entries in the source; they are usually repeats but may differ in a detail not shown here. Identical values can stand only once.

The results in this text go back to paper PMC12455949 (Journal of Virology, 2025).

Some targets named below: A/Victoria/361/2011 HA (Influenza A virus A/Victoria/361/2011 …, UniProt A0A097PF39, strain); A/Perth/16/2009 HA (Influenza A virus A/Perth/16/2009 (H3N2), UniProt C6KNH7, strain); A/Panama/2007/1999 HA (Influenza A virus A/Panama/2007/1999 …, UniProt Q1K9M3, strain); A/Texas/50/2012 HA (Influenza A virus A/Texas/50/2012 (H3N2), UniProt R4L1D1, strain).
Common to all, as to experiment: BLI
Holding throughout (conditions): both partners purified

Assay [1] concerns the target A/Switzerland/9715293/2013 HA, recombinant soluble (rHA) (Influenza A virus …, strain).
Assay [2] has as its target A/Perth/16/2009 HA, recombinant soluble (rHA) (Influenza A virus A/Perth/16/2009 (H3N2), UniProt C6KNH7, strain).
For assay [3], the target named is COBRA HA J4, recombinant soluble (rHA) (Influenza A virus H3, designed COBRA J4).
Assay [4] deals with COBRA HA TJ2, recombinant soluble (rHA) (Influenza A virus H3, designed COBRA TJ2).
Assay [5] deals with A/Panama/2007/1999 HA, recombinant soluble (rHA) (Influenza A virus A/Panama/2007/1999 …, UniProt Q1K9M3, strain).
The target of assay [6] is A/Texas/50/2012 HA, recombinant soluble (rHA) (Influenza A virus A/Texas/50/2012 (H3N2), UniProt R4L1D1, strain).
Assay [7] has as its target COBRA HA NG2, recombinant soluble (rHA) (Influenza A virus H3, designed COBRA NG2).
Assay [8] deals with A/Port Chalmers/1/1973 HA, recombinant soluble (rHA) (Influenza A virus A/Port …, UniProt Q1PUD9, strain).
Assay [9] deals with A/Switzerland/9715293/2013 HA (Influenza A virus …, strain).
Assay [10] deals with A/Port Chalmers/1/1973 HA (Influenza A virus A/Port …, UniProt Q1PUD9, strain).
The target in assay [11] is A/Victoria/361/2011 HA, recombinant soluble (rHA) (Influenza A virus A/Victoria/361/2011 …, UniProt A0A097PF39, strain).

B1: mAb #1664 (antibody, V domains shown)
VH: EVQVMQSGAEARMTGATVKISCKASGYTFSDYFLHWVKQAPGKGLEWMGLVDVDNGEVRYAEKFQGRVTITADTSTETAYLEMTTVTSGDTAVYYCASTTPRGGNPSVYNYFFVDVWGKGTTVTVSS
VL: QPVLTQSSSASASLGSSVKLTCTLSSGHDNYIIAWHQQQPGKAPRYLMQVGAGGTYNKGSGVPHRFSGSSSGADRYLTISNLQSDDEADYYCETWDSKTVFGGGTTLTVL
notes: copies: 2 + 2
Take B1: the Kd (in general, a measure of binding affinity in units of concentration) in [1] was 286 nM and 222 nM; in assay [2] it was 0.42 nM and 0.2 nM; in assay [3] it was 12.8 nM and 17.7 nM; in assay [4], 0.47 nM and 0.43 nM; in [5], 18.2 nM and 14.7 nM; in assay [6] it was 0.73 nM and 1.13 nM. The equilibrium dissociation constant (Kd) in [7] is 135 nM and 143 nM. Besides, the binding result in assay [8] is on record as “no binding (tested: 1350 nM)”.

B2: mAb #1664 (antibody, V domains shown)
VH: B1 VH
VL: B1 VL
B2: the Kd in assay [9] was found to be 254 nM; with A/Victoria/361/2011 HA it was 0.84 nM; in the assay with A/Perth/16/2009 HA, 0.31 nM; with A/Panama/2007/1999 HA, 16.4 nM; with A/Texas/50/2012 HA, 0.93 nM. Moreover, the koff (commonly the first-order rate constant of dissociation) in assay [9] was 0.00379 s⁻¹; in the assay with A/Victoria/361/2011 HA, 8.98e-05 s⁻¹; with A/Perth/16/2009 HA, 3.36e-05 s⁻¹; with A/Panama/2007/1999 HA, 0.00179 s⁻¹; in the assay with A/Texas/50/2012 HA, 9.08e-05 s⁻¹. Further, the kon (in general, a measure of how fast the partners come together) in assay [9] was found to be 15000 M⁻¹ s⁻¹; with A/Victoria/361/2011 HA, 119000 M⁻¹ s⁻¹; with A/Perth/16/2009 HA, 108000 M⁻¹ s⁻¹; with A/Panama/2007/1999 HA it was 109000 M⁻¹ s⁻¹; in the assay with A/Texas/50/2012 HA it was 98300 M⁻¹ s⁻¹. Further, the binding result in [10] is “no binding (tested: 100 nM rHA (exploratory assays))”.

B3: mAb TJ5-13 (antibody, V domains shown)
V domain 1: QVQLVQSGAEVKKPGSSVKVSCEASGDTFTTYSGINWVRQAPGQGLEWMGGVLPNFGSPNYAQRFQGRITITVDRSTSLVHMELTNLRSDDTAVYYCTETGAYNSVGYFPYFQFRGQGTLVSVSS
V domain 2: QSVLTQPPSVSGAPGQRVTISCTGSSSNIGADYDVHWYQQLPGTAPKLLIFGNNNRPSGVPDRFSGSKSGTSASLAITGLQAEDEADYYCQSFDKSLSGSFVFGTGTKVTGQ
In the case of B3, the Kd was 1.32 nM and 2.09 nM in [1]; 0.22 nM and 0.33 nM in assay [2]; 0.13 nM and 0.39 nM in assay [3]; 0.39 nM and 0.8 nM in assay [11]; 1.88 nM and 3.48 nM in [5]; 2.34 nM and 6.81 nM in assay [7]. The binding result in [8] is given as “no binding (tested: 1350 nM)”.

B4: mAb TJ5-13 (antibody, V domains shown)
V domain 1: B3 V domain 1
V domain 2: B3 V domain 2
For the molecule B4, the Kd in assay [9] came out at 1.71 nM; with A/Victoria/361/2011 HA, 0.59 nM; with A/Perth/16/2009 HA, 0.27 nM; with A/Panama/2007/1999 HA it was 1.14 nM; in the assay with A/Texas/50/2012 HA, 0.42 nM. The koff is 0.000166 s⁻¹ in [9]; 0.000128 s⁻¹ with A/Victoria/361/2011 HA; 6.03e-05 s⁻¹ with A/Perth/16/2009 HA; 0.000304 s⁻¹ with A/Panama/2007/1999 HA; 9.53e-05 s⁻¹ with A/Texas/50/2012 HA. Moreover, the kon was found to be 98600 M⁻¹ s⁻¹ in assay [9]; 218000 M⁻¹ s⁻¹ with A/Victoria/361/2011 HA; 226000 M⁻¹ s⁻¹ with A/Perth/16/2009 HA; 114000 M⁻¹ s⁻¹ with A/Panama/2007/1999 HA; 257000 M⁻¹ s⁻¹ with A/Texas/50/2012 HA. Besides, the binding result in assay [10] is “no binding (tested: 100 nM rHA (exploratory assays))”.

B5: mAb TJ5-1 (antibody, V domains shown)
VH: EVQLVQSGAEVKKPGASVKVSCKASGYTFTGFYLHWVRQAPGQGLEWMGWINPHSGDTDFAQKFQGKVTMTRDTSSNTVYMDVNRLTSDDTAVYYCVKNDIVLGMGVWGQGTTVIVSS
VL: QSVLTQPPSVSGAPGQRVTISCTGSSSNIGAGYNVYWFQQLPPTAPKLLNYGDNNRPSGVPDRFSASKSGTSASLAITGLQAEDEAEYYCQSYDSSLNAYVFGTGTKVTVL
B5: the Kd is 0.59 nM and 0.67 nM in assay [1]; 0.13 nM and 0.14 nM in assay [2]; 0.3 nM and 0.16 nM in [3]; 3.28 nM and 8.01 nM in [4]; 0.62 nM and 1.1 nM in assay [11]; 0.15 nM and 0.17 nM in assay [5]. The Kd in [6] is 0.21 nM and 0.39 nM; in assay [8], 7.13 nM and 13.1 nM.

B6: mAb TJ5-1 (antibody, V domains shown)
VH: B5 VH
VL: B5 VL
With B6, the Kd in assay [9] is 0.63 nM; in the assay with A/Victoria/361/2011 HA it was 0.86 nM; with A/Perth/16/2009 HA it was 0.14 nM; with A/Panama/2007/1999 HA, 0.16 nM; with A/Texas/50/2012 HA, 0.3 nM. Besides, the off-rate (koff) in [9] came to 0.00019 s⁻¹; with A/Victoria/361/2011 HA, 0.000195 s⁻¹; in the assay with A/Perth/16/2009 HA it was 3.66e-05 s⁻¹; with A/Panama/2007/1999 HA, 4.97e-05 s⁻¹; with A/Texas/50/2012 HA, 8.93e-05 s⁻¹. Moreover, the kon in assay [9] is 303000 M⁻¹ s⁻¹; in the assay with A/Victoria/361/2011 HA, 228000 M⁻¹ s⁻¹; with A/Perth/16/2009 HA it was 266000 M⁻¹ s⁻¹; with A/Panama/2007/1999 HA, 315000 M⁻¹ s⁻¹; with A/Texas/50/2012 HA, 307000 M⁻¹ s⁻¹.
